Measurements: IntAct's records for PubMed 21135508

B1: Myotubularin (Homo sapiens), Q13496 (parent)
chain: MASASTSKYNSHSLENESIKRTSRDGVNRDLTEAVPRLPGETLITDKEVIYICPFNGPIKGRVYITNYRLYLRSLETDSSLILDVPLGVISRIEKMGGATSRGENSYGLDITCKDMRNLRFALKQEGHSRRDMFEILTRYAFPLAHSLPLFAFLNEEKFNVDGWTVYNPVEEYRRQGLPNHHWRITFINKCYELCDTYPALLVVPYRASDDDLRRVATFRSRNRIPVLSWIHPENKTVIVRCSQPLVGMSGKRNKDDEKYLDVIRETNKQISKLTIYDARPSVNAVANKATGGGYESDDAYHNAELFFLDIHNIHVMRESLKKVKDIVYPNVEESHWLSSLESTHWLEHIKLVLTGAIQVADKVSSGKSSVLVHCSDGWDRTAQLTSLAMLMLDSFYRSIEGFEILVQKEWISFGHKFASRIGHGDKNHTDADRSPIFLQFIDCVWQMSKQFPTAFEFNEQFLIIILDHLYSCRFGTFLFNCESARERQKVTERTVSLWSLINSNKEKFKNPFYTKEINRVLYPVASMRHLELWVNYYIRWNPRIKQQQPNPVEQRYMELLALRDEYIKRLEELQLANSAKLSDPPTSPSSPSQMMPHVQTHF

Variants of: B1
Details: with desm_human DES

Variant | effect of a mutation on the interaction
P205L | disrupting interaction
R241C | disrupting interaction

Next, values leading:

effect of a mutation on the interaction | Variant
disrupting interaction | R184G
disrupting interaction | D278A
